B1: Azoarcus group I ribozyme (parent)
chain: GUGCCUUGCGCCGGGAAACCACGCAAGGGAUGGUGUCAAAUUCGGCGAAACCUAAGCGCCCGCCCGGGCGUAUGGCAACGCCGAGCCAAGCUUCGGCGCCUGCGCCGAUGAAGGUGUAGAGACUAGACGGCACCCACCUAAGGCAAACGCUAUGGUGAAGGCAUAGUCCAGGGAGUGGCGAAAGUCACACAAACCGG

Variants of: B1
Test: reverse-splicing fitness (ratio to wild type); higher = more active; in vitro selection; Mg2+ level not given
Method in brief: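 An in vitro group I ribozyme library with randomized positions was T7-transcribed and gel-purified. In triplicate, 10 pmol RNA in EPPS pH 7.5 was reacted with 50 pmoles of a 30-nt RNA substrate for 1 h at 37 °C across several added MgCl2 levels (1–48 mM), then stopped with EDTA. Products were reverse transcribed from a substrate-complementary primer, PCR-amplified and sequenced (HiSeq 4000). Fitness is a variant's read proportion after selection over that before, normalised to wild type.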
Variant C82A A111G A120U C150A C169A has a reverse-splicing fitness of 0.00447. C82A A111G A120U C150G C169U showed a reverse-splicing fitness of 0.00601. In the case of C82A A111G A120U C150G C169A, the reverse-splicing fitness is reported as 0.00678. For C82A A111G A120U C150G C169G, the reverse-splicing fitness was 0.00649. For C82A A111G A145C C150G C169A U176A, the reverse-splicing fitness was 0.00847. In the case of C82A A111G A145C C150G C169A U176G, the reverse-splicing fitness is reported as 0.00658. C82A A111G A145C C150G C169A U176C showed a reverse-splicing fitness of 0.00805. C82A A111G A145C C169G showed a reverse-splicing fitness of 0.00994. C82A A111G A145C C169U gave a reverse-splicing fitness of 0.0119. C82A A111G A145C C169A gave a reverse-splicing fitness of 0.0076. In the case of C82A A111G A120U A145U C150U C169U, the reverse-splicing fitness is reported as 0.00376. Work on C82A A111G A120U A145U C150U C169G yielded a reverse-splicing fitness of 0.00324. C82A A111G A120U A145U C150U C169A gave a reverse-splicing fitness of 0.00329. Variant C82A A111G A120U C150U C169G has a reverse-splicing fitness of 0.00566. Variant C82A A111G A120U C150U C169A has a reverse-splicing fitness of 0.00487. C82A A111G A120U C150U C169U showed a reverse-splicing fitness of 0.0051. C82A A111G A145C gave a reverse-splicing fitness of 0.41. With C82A A111G A120U C169G U176G the reverse-splicing fitness was 0.00181. Variant C82A A111G A120U C169G U176A has a reverse-splicing fitness of 0.00294. C82A A111G A120U C169G U176C gave a reverse-splicing fitness of 0.00341. C82A A111G A145C C150G C169U gave a reverse-splicing fitness of 0.00926. For C82A A111G A145C C150G C169G, the reverse-splicing fitness was 0.00702. In the case of C82A A111G A145C C150G C169A, the reverse-splicing fitness is reported as 0.00898. C82A A111G A120U A145U C150A U176A gave a reverse-splicing fitness of 0.00478. In the case of C82A A111G A120U A145U C150A U176G, the reverse-splicing fitness is reported as 0.00197. For C82A A111G A120U A145U C150A U176C, the reverse-splicing fitness was 0.00602. With C82A A111G A120U C169U the reverse-splicing fitness was 0.00452. C82A A111G A120U C169A showed a reverse-splicing fitness of 0.00261. For C82A A111G A120U C169G, the reverse-splicing fitness was 0.00374. Work on C82A A111G A145C C150U yielded a reverse-splicing fitness of 0.0851. Work on C82A A111G A145C C150G yielded a reverse-splicing fitness of 0.0325. For C82A A111G A145C C150A, the reverse-splicing fitness was 0.018. Variant C82A A111G A120U A145C C150U has a reverse-splicing fitness of 0.0111. C82A A111G A120U A145C C150A gave a reverse-splicing fitness of 0.00468. With C82A A111G A120U A145C C150G the reverse-splicing fitness was 0.00637. With C82A A111G A120U A145C C150G C169U U176C the reverse-splicing fitness was 0.0028. In the case of C82A A111G A120U A145C C150G C169U U176A, the reverse-splicing fitness is reported as 0.00268. C82A A111G A120U A145C C150G C169U U176G showed a reverse-splicing fitness of 0.00231. C82A A111G A120U C150G C169U U176A showed a reverse-splicing fitness of 0.00322. With C82A A111G A120U C150G C169U U176C the reverse-splicing fitness was 0.00511. With C82A A111G A120U C150G C169U U176G the reverse-splicing fitness was 0.00249. Variant C82A A111G A120U A145U C150U C169G U176C has a reverse-splicing fitness of 0.00298. Variant C82A A111G A120U A145U C150U C169G U176G has a reverse-splicing fitness of 0.00208. Work on C82A A111G A120U A145U C150U C169G U176A yielded a reverse-splicing fitness of 0.00294. C82A A111G A120U A145C C150G C169G U176A gave a reverse-splicing fitness of 0.00289. C82A A111G A120U A145C C150G C169G U176C showed a reverse-splicing fitness of 0.00289. With C82A A111G A120U A145C C150G C169G U176G the reverse-splicing fitness was 0.00217. With C82A A111G A120U A145C C150U C169G the reverse-splicing fitness was 0.00298. C82A A111G A120U A145C C150U C169U gave a reverse-splicing fitness of 0.00308. C82A A111G A120U A145C C150U C169A gave a reverse-splicing fitness of 0.00248. Work on C82A A111G A120U C150A U176G yielded a reverse-splicing fitness of 0.00282. In the case of C82A A111G A120U C150A U176A, the reverse-splicing fitness is reported as 0.00595. For C82A A111G A120U C150A U176C, the reverse-splicing fitness was 0.00802. C82A A111G A120U A145C C150G U176G showed a reverse-splicing fitness of 0.00262. C82A A111G A120U A145C C150G U176C gave a reverse-splicing fitness of 0.00393. For C82A A111G A120U A145C C150G U176A, the reverse-splicing fitness was 0.00295. For C82A A111G A120U A145G C169A, the reverse-splicing fitness was 0.00307. Variant C82A A111G A120U A145G C169U has a reverse-splicing fitness of 0.00421. Variant C82A A111G A120U A145G C169G has a reverse-splicing fitness of 0.00402. C82A A111G A120U A145C C150U C169G U176G showed a reverse-splicing fitness of 0.00192. For C82A A111G A120U A145C C150U C169G U176A, the reverse-splicing fitness was 0.00301. With C82A A111G A120U A145C C150U C169G U176C the reverse-splicing fitness was 0.0025. Variant C82A A111G A145C C150A C169U has a reverse-splicing fitness of 0.0104. For C82A A111G A145C C150A C169G, the reverse-splicing fitness was 0.00918. Work on C82A A111G A145C C150A C169A yielded a reverse-splicing fitness of 0.00955. C82A A111G A120U C169A U176C gave a reverse-splicing fitness of 0.00316. Variant C82A A111G A120U C169A U176A has a reverse-splicing fitness of 0.00268. C82A A111G A120U C169A U176G gave a reverse-splicing fitness of 0.00152. Work on C82A A111G A120U A145G C150G C169U U176C yielded a reverse-splicing fitness of 0.00796. Work on C82A A111G A120U A145G C150G C169U U176G yielded a reverse-splicing fitness of 0.00328. In the case of C82A A111G A120U A145G C150G C169U U176A, the reverse-splicing fitness is reported as 0.00739. For C82A A111G A145C C150G C169U U176G, the reverse-splicing fitness was 0.00568. Variant C82A A111G A145C C150G C169U U176A has a reverse-splicing fitness of 0.00799. For C82A A111G A145C C150G C169U U176C, the reverse-splicing fitness was 0.0106. For C82A A111G A120U A145U C169A U176C, the reverse-splicing fitness was 0.00249. Work on C82A A111G A120U A145U C169A U176G yielded a reverse-splicing fitness of 0.00145. C82A A111G A120U A145U C169A U176A gave a reverse-splicing fitness of 0.00218. Variant C82A A111G A120U A145G C150G C169A U176A has a reverse-splicing fitness of 0.0108. C82A A111G A120U A145G C150G C169A U176G gave a reverse-splicing fitness of 0.00369. C82A A111G A120U A145G C150G C169A U176C gave a reverse-splicing fitness of 0.00953. Work on C82A A111G A120U A145C C150U U176C yielded a reverse-splicing fitness of 0.00422. In the case of C82A A111G A120U A145C C150U U176A, the reverse-splicing fitness is reported as 0.00447. With C82A A111G A120U A145C C150U U176G the reverse-splicing fitness was 0.00292. C82A A111G A145C C150U U176G showed a reverse-splicing fitness of 0.0154.

Reference: the RNAGym collection of RNA variant scans (doi:10.1093/molbev/msab373)
